Starred links: 1 amine or outer side, 2 acyl side, 3 side chain; linkers in the order of their positions; H or OH if unused. Non-standard residues stand in square brackets, D forms with d. Groups on a side chain read outwards from the residue. Primed or numbered codes have the meaning given here. No end group written: not given here. *: point of attachment. γGlu = O=C(O)[C@H](CCC(=O)[*:2])N[*:1]; Stearoyl = CCCCCCCCCCCCCCCCCC(=O)*; αMeF = C[C@](N)(Cc1ccccc1)C(=O)O; αMeK = C[C@](N)(CCCCN)C(=O)O; αMeS = C[C@](N)(CO)C(=O)O; PEG2′ = not defined here; Aib = CC(C)(N)C(=O)O
T1: glucose-dependent insulinotropic peptide (gastric inhibitory polypeptide) receptor (human, UniProt P48546 22-466)
T1 sequence (looked up): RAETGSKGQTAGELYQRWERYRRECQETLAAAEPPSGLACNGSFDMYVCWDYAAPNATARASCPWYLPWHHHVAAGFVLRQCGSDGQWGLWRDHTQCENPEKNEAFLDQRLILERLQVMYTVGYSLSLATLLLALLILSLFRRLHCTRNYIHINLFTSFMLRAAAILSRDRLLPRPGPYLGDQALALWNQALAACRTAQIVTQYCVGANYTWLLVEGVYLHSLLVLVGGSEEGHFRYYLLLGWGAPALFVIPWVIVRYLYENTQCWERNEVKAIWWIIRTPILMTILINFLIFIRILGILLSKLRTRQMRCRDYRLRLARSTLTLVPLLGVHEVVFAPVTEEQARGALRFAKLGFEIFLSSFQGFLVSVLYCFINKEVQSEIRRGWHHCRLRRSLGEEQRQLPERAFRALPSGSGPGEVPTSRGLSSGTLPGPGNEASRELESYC

B1: SEQ ID NO 54 (peptide)
peptide: H[Aib]EGS[αMeF]TSDV[αMeS]S[αMeF]LEGEAAK([PEG2′-PEG2′-PEG2′-Stearoyl])EFIA[αMeF]VV[αMeK]GG-NH2
B2: SEQ ID NO 52 (peptide)
peptide: H[Aib]EGS[αMeF]TSDVSS[αMeF]LEGEAAK([PEG2′-PEG2′-PEG2′-Stearoyl])E[αMeF]IA[αMeF]VV[αMeK]GG-NH2
B3: SEQ ID NO 51 (peptide)
peptide: H[Aib]EGSFTSDV[αMeS]S[αMeF]LEGEAAK([PEG2′-PEG2′-PEG2′-Stearoyl])E[αMeF]IA[αMeF]VV[αMeK]GG-NH2
B4: SEQ ID NO 62 (peptide)
peptide: H[Aib]EGS[αMeF]TSDVSK([PEG2′-PEG2′-PEG2′-Stearoyl])YLEGEAAEE[αMeF]IA[αMeF]VVEGG-NH2
B5: SEQ ID NO 8 (peptide)
peptide: H[Aib]EGS[αMeF]SSDVSS[αMeF]LEGEAA[αMeK]E[αMeF]IA[αMeF]VV[αMeK]GG-NH2
modifications: N-terminus assumed
SMILES: CC[C@H](C)[C@H](NC(=O)[C@](C)(Cc1ccccc1)NC(=O)[C@H](CCC(=O)O)NC(=O)[C@](C)(CCCCN)NC(=O)[C@H](C)NC(=O)[C@H](C)NC(=O)[C@H](CCC(=O)O)NC(=O)CNC(=O)[C@H](CCC(=O)O)NC(=O)[C@H](CC(C)C)NC(=O)[C@](C)(Cc1ccccc1)NC(=O)[C@H](CO)NC(=O)[C@H](CO)NC(=O)[C@@H](NC(=O)[C@H](CC(=O)O)NC(=O)[C@H](CO)NC(=O)[C@H](CO)NC(=O)[C@](C)(Cc1ccccc1)NC(=O)[C@H](CO)NC(=O)CNC(=O)[C@H](CCC(=O)O)NC(=O)C(C)(C)NC(=O)[C@@H](N)Cc1c[nH]cn1)C(C)C)C(=O)N[C@@H](C)C(=O)N[C@@](C)(Cc1ccccc1)C(=O)N[C@H](C(=O)N[C@H](C(=O)N[C@@](C)(CCCCN)C(=O)NCC(=O)NCC(N)=O)C(C)C)C(C)C
B6: SEQ ID NO 49 (peptide)
peptide: H[Aib]EGS[αMeF]TSDV[αMeS]S[αMeF]LEGEAAK([PEG2′-PEG2′-γGlu-Stearoyl])E[αMeF]IAWVV[αMeK]GG-NH2
B7: SEQ ID NO 55 (peptide)
peptide: H[Aib]EGS[αMeF]TSDV[αMeS]S[αMeF]LEGEAAK([PEG2′-PEG2′-PEG2′-Stearoyl])E[αMeF]IAWVV[αMeK]GG-NH2
B8: SEQ ID NO 60 (peptide)
peptide: H[Aib]EGS[αMeF]TSDVSK([PEG2′-PEG2′-γGlu-Stearoyl])YLEGEAA[αMeK]E[αMeF]IA[αMeF]VVEGG-NH2
B9: SEQ ID NO 47 (peptide)
peptide: H[Aib]EGS[αMeF]TSDV[αMeS]SYLEGEAAK([PEG2′-PEG2′-γGlu-Stearoyl])E[αMeF]IA[αMeF]VV[αMeK]GG-NH2
B10: SEQ ID NO 61 (peptide)
peptide: H[Aib]EGS[αMeF]TSDVSK([PEG2′-PEG2′-PEG2′-Stearoyl])YLEGEAAKE[αMeF]IA[αMeF]VVEGG-NH2
B11: SEQ ID NO 63 (peptide)
peptide: H[Aib]EGS[αMeF]TSDVSK([PEG2′-PEG2′-PEG2′-Stearoyl])YLEGEAA[Aib]E[αMeF]IA[αMeF]VVEGG-NH2
B12: SEQ ID NO 48 (peptide)
peptide: H[Aib]EGS[αMeF]TSDV[αMeS]S[αMeF]LEGEAAK([PEG2′-PEG2′-γGlu-Stearoyl])EFIA[αMeF]VV[αMeK]GG-NH2
B13: SEQ ID NO 59 (peptide)
peptide: H[Aib]EGS[αMeF]TSDVSK([PEG2′-PEG2′-γGlu-Stearoyl])YLEGEAA[Aib]E[αMeF]IA[αMeF]VVEGG-NH2
B14: SEQ ID NO 53 (peptide)
peptide: H[Aib]EGS[αMeF]TSDV[αMeS]SYLEGEAAK([PEG2′-PEG2′-PEG2′-Stearoyl])E[αMeF]IA[αMeF]VV[αMeK]GG-NH2
B15: SEQ ID NO 56 (peptide)
peptide: H[Aib]EGS[αMeF]TSDV[αMeS]S[αMeF]LEGEAAK([PEG2′-PEG2′-PEG2′-Stearoyl])E[αMeF]IA[αMeF]VVKGG-NH2
B16: SEQ ID NO 58 (peptide)
peptide: H[Aib]EGS[αMeF]TSDVSK([PEG2′-PEG2′-γGlu-Stearoyl])YLEGEAAEE[αMeF]IA[αMeF]VVEGG-NH2
B17: SEQ ID NO 50 (peptide)
peptide: H[Aib]EGS[αMeF]TSDV[αMeS]S[αMeF]LEGEAAK([PEG2′-PEG2′-γGlu-Stearoyl])E[αMeF]IA[αMeF]VVKGG-NH2
B18: SEQ ID NO 57 (peptide)
peptide: H[Aib]EGS[αMeF]TSDVSK([PEG2′-PEG2′-γGlu-Stearoyl])YLEGEAAKE[αMeF]IA[αMeF]VVEGG-NH2

biological target: glucagon receptor (human, UniProt P47871 26-477); test: cell-based or functional assay
Sequence (P47871 26-477): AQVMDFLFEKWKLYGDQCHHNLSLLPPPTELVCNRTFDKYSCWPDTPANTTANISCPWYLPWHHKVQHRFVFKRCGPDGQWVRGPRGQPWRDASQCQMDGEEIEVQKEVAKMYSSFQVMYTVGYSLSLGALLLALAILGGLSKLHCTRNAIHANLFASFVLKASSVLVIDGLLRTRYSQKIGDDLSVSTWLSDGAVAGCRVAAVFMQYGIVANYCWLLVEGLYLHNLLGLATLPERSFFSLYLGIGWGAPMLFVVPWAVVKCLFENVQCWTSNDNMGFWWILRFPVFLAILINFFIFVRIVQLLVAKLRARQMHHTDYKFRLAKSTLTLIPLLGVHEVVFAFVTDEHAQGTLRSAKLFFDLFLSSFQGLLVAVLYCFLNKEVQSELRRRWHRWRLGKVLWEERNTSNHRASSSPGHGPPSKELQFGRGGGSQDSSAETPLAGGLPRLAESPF

Primary assay EC50 (cAMP), n1 [nM] | Primary assay EC50 (cAMP), n2 [nM] | Binder
26 | 26 | B1
26 | 26 | B2
26 | 26 | B3
25 | 25 | B4
7.8 | 12 | B5
25 | 25 | B6
25 | 25 | B7
25 | 25 | B8
25 | 25 | B9
25 | 25 | B10
25.7 | 25.7 | B11
26 | 26 | B12
25.6 | 25.6 | B13
26 | 26 | B14
26 | 26 | B15
25 | 25 | B16
26 | 26 | B17
25 | 25 | B18

biological target: T1, glucose-dependent insulinotropic …; test: cell-based or functional assay

Primary assay EC50 (cAMP), n1 [nM] | Primary assay EC50 (cAMP), n2 [nM] | Binder
26 | 26 | B1
26 | 26 | B2
26 | 26 | B3
25 | 25 | B4
23 | 23 | B5
25 | 25 | B6
25 | 25 | B7
25 | 25 | B8
25 | 25 | B9
25 | 25 | B10
25.7 | 25.7 | B11
26 | 26 | B12
25.6 | 25.6 | B13
26 | 26 | B14
26 | 26 | B15
25 | 25 | B16
26 | 26 | B17
25 | 25 | B18

biological target: GLP-1 receptor (human, UniProt P43220 24-463); test: cell-based or functional assay

Primary assay EC50 (cAMP), Mean pM GLP-1R [pM] | Primary assay EC50 (cAMP), n1 [nM] | Primary assay EC50 (cAMP), n2 [nM] | Binder
0.9 | 0.00079 | 0.00093 | B1
2 | 0.0015 | 0.0025 | B2
2.1 | 0.0017 | 0.0024 | B3
1.9 | 0.002 | 0.0018 | B4
88 | 0.071 | 0.11 | B5
124 | 0.096 | 0.15 | B6
1.8 | 0.0014 | 0.0023 | B7
49 | 0.049 | 0.05 | B8
43.3 | 0.037 | 0.05 | B9
0.9 | 0.00085 | 0.00091 | B10
2.9 | 0.00321 | 0.00255 | B11
6.1 | 0.0039 | 0.0082 | B12
211 | 0.243 | 0.179 | B13
0.9 | 0.00083 | 0.0009 | B14
3.2 | 0.0029 | 0.0035 | B15
4720 | 5.2 | 4.3 | B16
216 | 0.17 | 0.26 | B17
153 | 0.14 | 0.17 | B18
